Here are results for three substances from article PMC7960628.

Assay in all cases: SEC; gel filtration chromatography of the Ni-NTA purified motif-foldon fusion proteins; trimer
Assay [1] addresses 6xHis-(GPP)5GPKGER(GPP)5-foldon.
Assay [2] addresses 6xHis-(GPP)5GFQGEK(GPP)5-foldon.
Assay [3] has as its target 6xHis-(GPP)5GSQGEK(GPP)5-foldon (mouse | not stated).

Substance “6xHis-(GPP)5GPKGER(GPP)5-foldon (designed binder)” registered a stoichiometry N in assay [1] of 3. The substance “6xHis-(GPP)5GFQGEK(GPP)5-foldon (designed binder)” registered a stoichiometry N in assay [2] of 3. “6xHis-(GPP)5GSQGEK(GPP)5-foldon (designed binder)” returned a stoichiometry N in assay [3] of 3.
